# Source: patent US20200157248A1
# Legend:
# Assay in all cases: ELISA, VHH on coated antibody
# [1] = target: Fwt
# [2] = target: mutC4/Cmut4
# [3] = target: mutF4/Fmut4
Binder,ELISA OD [1],ELISA OD [2],ELISA OD [3]
VHH clone 8G12 (VHH) VHH: EVQLVESGGGLVRAGGSLRLSCAASGSIFGTTNMGWYRQAPGTQRDLVATINNGGITNYADSVKGRFTISTDYTKNTVYLQMDRLKPEDTAVYYCNAEYHFRPPSWGQGTQVTVSS,0.063 OD,0.2 OD,0.159 OD
VHH clone 8B03 (VHH) VHH: EVQLVESGGGLVQPGGSLRLSCRASGAIFSINHMGWYRQAPGKQRELVATITSGGSTNYADSVKGRFTISRDNAKNTVYLQMNSLKPEDTAVYSCNLDWTTGWGSRRDYWGQGTQVTVSS,0.069 OD,0.068 OD,0.221 OD
VHH clone 8GO9 (VHH) VHH: QVQLVESGGGLVQAGGSLRLSCAASGRTFSRYGMSWFRQAPGKEREFVATISRGGSSTNYADSTKGRFTVSRDNAKNTVVLQMNSLKPEDTAVYYCAADTNWPVGAYEYWGQGTQVTVSS,0.114 OD,0.068 OD,0.153 OD
VHH clone 8G1 (VHH) VHH: QVQLVESGGGLVQPGGSLRLSCRASGAIFSINHMGWYRQAPGKQRELVATITSGGSTNYADSVKGRFTISRDNAKNTVYLQMNSLKPEDTAVYSCNLDWTTGWGSRRDYWGQGTQVTVSS,0.079 OD,0.068 OD,0.128 OD
VHH clone 8G11 (VHH) VHH: EVQLVESGGGLVQAGGSLRLSCAASGRTFDIYTMGWFRQVPGKEREFVADIGRAGGTTHYADSVKGRFAISRDNANDAVHLQMNSLKPEDTAVYYCATKVVPRAGRRLLDYDYWGQGTQVTVSS,0.073 OD,0.054 OD,0.123 OD
